Laboratory results reported in a protein production outcome set (Wang et al. 2014).

Assay: label from the status in PepcDB records
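Also: failed if final PepcDB status was selected cloned or expressed and not failed if soluble or beyond.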

Sequence | protein production
MSMKGISSAESDKLSRRISLTHKRNSEELDVFEAAVYFGYNEASSGDHGHTQKYGYNAAREENPRRWGILGGGRRISLDLPIRCSEQVYHLQQDHHEKHEVTTIKERLGNVRHKQPSSPGGKIASFLNSLFHQAGSKKNKSKSKSKTKPTDPEVEEEIPGGGWMRRRRRSSISHFFSSSRSTSTTTTTTASSSSKSLISSSSSGFRTPPPYLNTPTKNYKQFLNYTSATKQVGEEETKTNKEYSWLDEKLKVMESLSENQRIWSDDEDIDDDRRIKREGEDDGMESDSSSDLFELQNYELSRGGLPVYETTNVANINKTHI | failed
MIVLALLGVLLLSVYAYKTKKLTLSGAISAFVVGALISFGLGFKGLLLLAIFFFTSGFWSRFYQERKENEITAKGSTRDGWQVLANGGFAAICALLFSILQDPIYICGFVASLAAANADTWASEVGPLAKRRPIHIIKWKPVDAGTSGAVSAIGTAAAFAGSFIIVVVSIFFWWSSSFASHHLLFSLTLAGFLGNLFDTLVGATGQVLYQCPRCGLETERKIHCNGPTEKKYGLRFLNNDTVNAICTGTGALFGIVAGLILL | failed
IIGNAEAICLPELGITHLEARIDTGAQTSSLHVDNIDCFEKDGQSYVAFDLHPDVYHLEQVVRCTAKLKANRKVKSSNGTFEHRCVITTMLRLGDQEWPIDITLTNREKMTYMMLLGRQGMADKVLVDPSQSH | failed
MDPSQFNPTYIPGSPQMLTEENSRDDSGASQISSETLIKNLSNLTINASSESVSPLSEALLRRESVGAAVLREIEDEWLYSRRGVRTLLSVQREKMARLRYMLLGGVRTHERRPTNKEPKGVKKESRPFKCPCSFCVSNGWDPSENARIGNQDTKPLQP | failed
MDEKRLKILEAAMEEFTEKGYQAASTNKICAKAGVSKGLIFHYFGSKEKLYIAAVSYAVDFATNEVSLEEKRWSDFVEMAIWSTKMKLDFNRKYPAIFGLIMQAYGNPPPELKGKLDGFFDKAIERSEAQMNQVLNEMQLKKDVNMDAARKVMEALFQHITEKSTVFLQRHPNATMEDFIPLANDFTEMMRIVEFGICEEKKDSGE | failed
MSLSELSPCHVRSGRIMTVDGPIPSSALGHTLMHEHLQNDCRCWWNPPQEPERQYLAEAPISIEILSELRQDPFVNKHNIALDDLDLAIAEVKQFAAVGGRSIVDPTCRGIGRDPVKLRRISAETGVQVVMGAGYYLASSMPETAARLSADDIADEIVAEALEGTDGTDARIGLIGEIGVSSDFTAEEEKSLRGAARAQVRTGLPLMVHLPGWFRLAHRVLDLVEEEGADLRHTVLCHMNPSHMDPVYQATLAQRGAFLEFDMIGMDFFYADQGVQCPSDDEVARAILGLADHGYLDRILLSHDVFVKMMLTRYGGNGYAFVTKHFLPRLRRHGLDDAALETLMVTNPRRVFDASIEGHHHHHH | not failed
MVSYKILSVANKLKNIRDKYGLSQEDLAGNEITRNLISQIEHNKANLTRSAAEIMLKNLKKICDKKNVQVDEDINYLMEDEKSQAIKVLDKYIDDLRDLTIYKDNVFINKLREVEDFLVTWDFRDKKITIFELAGDYFSSTNDFYNASLYYEKAKALIDINIYSDNIVHILRKLSMTYYYMLRYQDDINCCEFALKQFKNMDEEYRCIFLFNSSLCYGQLKKYDLALKRLNEVESIIKNIDQNKYYEVLIQKAICYQWMKEYQKSLDIYNKLLESIDKSDYEKYLFILVNSSDIYVENSNFEKAESNLRIILENINNLNESSTLLPSTYLEMSRILKKLGYTKDAELYCLKSLNYAKRNTHYYLVNDIYGELLDIYKTLNVPEKVQTIKDEFFSNSSRDKNLNSKLMFKLLDFYFATNDIHSIKEIYDFSKNFIQERMINLCY | failed
MATGNTLLAVYRSRIGEPTTDDEAYGYWLFVIGIVLGIVGLLLFYLTASRSTPRQFGYLLGAIGLISLFAGPTIRLPLTRRGLILTYLGAVVGLVAMVWFTTFYPSNWTGPEGNPAVTLYIVGLGLMAVGAVVSPLLTGRKEAYDKAVQTAEDATEVAEQATQEADRASREATQQSQTADRATRERNRLAEQLATSEAAREELATVTEASEAELAAAHATIAAAMDSKATFELYEDAGGKYRWRLRHRNANVIADSAQGYSSRQKAMQGLRSVQSNAAGGAVVFFEDATEDDTAEDVPVVPAPESDATFELFEDSAGEFRWRLRHDNGNILADSGEGYASKSNVRRALQSVRAHVPGAAYLRVDPVAYEVYADAAGEFRWRLLHRNGNILADSGEGYSSRSNARRAARRVSELAPDSAVDDRFEVYEDAAEEWRWRLRADNGELIADSGEGYANRSKAMDAVERVQSYAADADLLAIGSAAFEVYEDKGEEWRWRLRHRNGKIIADSGEGYAERNKAVAAIERIKRHAPGATQEE | failed
MNTYLKNSPGFWIGRIHHKLKNRMNQRLKPYDLTAEQRLILLRLFEFGEMTQQQLCQKTFTEPSNITLTLRRMESHGYVRKKPHPKDKRASLIEATPKALSIQNELERIGLEITDSLLLEVDPSEKETLLRVLQAMYQKMLQEEAIEEFSF | failed
MATRQPLDATACSLMVGLCAIWGLQQVALKATASDIAPVLQIALRSGGAALLVGLLMCWRGERLGLGDGHWRPGLLVGGLFALEFLLVGEGLRYTTASHMAIFLYTAPIFAALGLHWLMPAERLKPAQWLGIGVAFGGIVVAFSGPAAAGHGGGSHVLLGDFLGVLGGVAWGATTVVVRCSRLASSPTTRTLQYQLLGAFVWLGLAALLTDQTSIHFTPLVVASLGFQVLVVSFASFLIWFTLLRRYPASRLGVLSFMTPLFGIGFGVWLLHEPLEPNFIFGALLVLAGIVMVSGYEWLRQRFKRNRESPVAPRSS | failed
MYLLTFKGLIYSAGGTWLNKGNLMYFGSLIFLFLVVFLIFSEQRTEKTSGLEKVSVQEAKEMIEKGDVFVLDVRTPDEFNSSHIKGATLIPLSNAFGSNLSSESLLKAHIDEVPKEKILVYCRTGRRSDTAGRMLVNAGYTQVYNMVGGIIAWTDAGYPVVSSEDTESEGSHN | failed
MLKHFGSKVRNLRVTRNITREDFCGDETELSVRQLARIESGQSIPNLTKAHYIAKQLNVKLDILTGGESLELPKRYKELKYLILRIPTYADAERLKLRECQFDHIFEEFYDNLPEDECLAIDSLQAKFEVYQTGDINFGVEVLCECFDKVKYKEKYTLNDLIIIDLFLTCAVVSKFNNRAFTKEVFQTICKTLISQNHKLTAEDLFWFNHVLLNCVFVGLCLNSEECLAEMLEVSRQTMVSTHDFHKMPLYFMYQWKYFITIDNDIKSAENAYQQSIMFSKMIDDKHLIKKLELEWQEDITGH | failed
KNVVHQLSVTLEDLYNGATRKLALQKNVICDKCEGRGGKKGAVECCPNCRGTGMQIRIHQIGPGMVQQIQSVCMECQGHGERISPKDRCKSCNGRKIVREKKILEVHIDKGMKDGQKITFHGEGDQEPGLEPGDIIIVLDQKDHAVFTRRGEDLFMCMDIQLVEALCGFQKPISTLDNRTIVITSHPGQIVKHGDIKCVLNEGMPIYRRPYEKGRLIIEFKVNFPENGFLSPDKLSLLEKLLPERKEVEETDEMDQVELVDFDPNQERRRHYNGEAYEDDEHHPRGGVQCQTS | failed
MEIRTLALKTPEGQPFTMWIYQHDQFTLFPDDRLWPLALIFPGGGFAGYSEREVEAVALKFIAKGYQAAVVKYNLTSDGPFYPTAATIGLAALSYVKRHAQELNADFDHVVVSGFSAGGHLVAVMTALGAQSEFLNNHGFEETKLVPFAQILSYPVIDLTMGFPTSQHEMMAVTTDESYWHAQELVTSQTPPTFIWATRTDELVPVVNSLVYLAALGEHNVPFESHIYAAGVHGLAFGDLADSRYHHPEDVVPRVQNWFPMALGWLRTLYASKNSTEILEHHHHHH | failed
MVGAIARWASLKIVMNPRQLTKTMNIQFLGNITTAILLAVVLQITLWPSAAQACTRILWNNNKLAVVVGRTMDWPESTEPELMVFPQGIKRNGGMLGDMLVVKDNPAQWTSKYGSVVTTVYGMGTVDGLNEKGLGMHMLYLTATDFGPRNPKKAGVQAGLWGQYLLDNAATVKEALALMNEIQPVMVALDDMKATVHLAIEDASGDSAILEYVEGKLVVHHGPEYRVMTNDPTYDQQLKFLETWDFTNATRQTPLPGNVDPKDRFVRASYYQMMLPEPKTEQEAIAGILAIARNTSVPFGAPNNIPGSLYNTEYRTAIDLTNRRYFFELTTSPNVIWVNLDQLNLAPGAPVLSLDPDNLDLSGNVTDKFTKVLKSPF | failed
MKVVVITGNLSRPSKTRAVADFMVDRVRASGNEASCWDLVDLHPHLGATVLPSSAAEIVKAALNDILASDVLVVGSPVYKASYTGLLKHLFDLVDMKALKGRYVIPFATGKASSHKPLVEASMEALFDFFEAQIHSRFIFALDEDFQNDALSENLRALVDRELDAARRAVSP | failed
MRVARLFRFPVKGFPAEEIPEADVRTGRGIRGDRVAAFTNGSLDIPDDSWHRYSAFTVLKNDTDLQKWQVELDLAEAADSSQPAVADPSATVTLTSPQNETTTFRTDDRDTRATSADFLSARIPPQGDFPRALSVADQGMFDSQAAGVSIINPATVAAISQTADGQAALAPGETELDPLRFRGNVLVDGLAPFEEFALIGKIVRLGGVRLAITQAIERCPATTVNPTTTAVDVNVPRVLASACGHLHCGVYGRILESGLVSTGDEIEIEGDAPRELVKTARTPRFMTVLGSQQICNDIVEVSLRDDQGWIREFDEPGTNLRVHLDLGEPFWRTYTITDVSDDIVSIAVRTQGKGSRAVAELAAGQSVLASGPHGTMTANRVFGGTTALVTAGIGITPSLGLMRGAELSGTEKIKLFHVDRDHRTACLWDRLQKRAHSRQIPVETHHRDTASQGRPGHADLVDWLAGCDNVMVCGPADFTRAVLDASAEAGVPAVHQEIFASPNTGMSEAIAQCSPAEVTLENSGTSFLWEPQQGTLLEALEARGLRADNSCRGGSCGTCAVSLAAGSVIYPVEPAARIAADEVLVCSAVPSGPISLGILEHHHHHH | failed
MAAMPKPAAFWNDRFANEEYVYGEAPNRFVASAARTWLPEAGEVLLLGAGEGRNAVHLAREGHTVTAVDYAVEGLRKTERLATEAGVEVEAIQADVREWKPARAWDAVVVTFLHLPADERPGLYRLVQRCLRPGGRLVAEWFRPEQRTDGYTSGGPPDPAMMVTADELRGHFAEAGIDHLEAAEPTLDEGMHRGPAATVRLVWCRPSTSLEHHHHHH | not failed
MYKLDHLNHNTLDESSLELHETPKGYTNVALFGLDSRDGELSGGVRSDSIMIVSINNKTGDVKIISVYRDTLLKQQDGSYEKANAAYSFGGPQEAVAMLNRNLDLDITKYASVNFNSLADIIDILGGVEVELTSEEIFWLNGYTAETSQVVGRQTHTLDENSPGVHNLDGIQAVSYTRIRYTAGDDFKRAERQRIILQKMIQKLKTAGPVKWNKILDQVLPEISTNMTTPDIMKLGLNIFRYKIGETKGFPFDITTSENVIGLEGSYAVAIGHADNVRQLHEQLFGETGYQPSDEVQQISQDVAYLTGVLEHHHHHH | not failed
MRETSNPVFRSLPKQRGGYAQFGTGTAQQGFPADPYLAPYREAKATRPLTIDDVVTKTGLTLAMLAGTAVVSYFLVASNVALAMPLTLVGALGGLALVLVATFGRKQDNPAIVLSYAALEGLFLGAISFVLANFTVASANAGVLIGEAILGTMGVFFGMLVVYKTGAIRVTPKFTRMVVAALFGVLVLMLGNLVLAMFNVGGGEGLGLRSPGPLGIIFSLVCIGIAAFSFLIDFDAADQMIRAGAPEKAAWGVALGLTVTLVWLYIEILRLLSYLQNE | failed
